From patent US7829301B2, “Screening assays for binding antagonists of the AMD-associated variant of factor H (H384)” (The University of Manchester, priority 2006, dated 2010) come the findings set out here.

Assay [1] is described as follows: Heparin affinity chromatography on HiTrap Heparin column. The class given is binding. The note with it: pH 7.3; linear salt gradient 130 mM to 1 M NaCl. Here is the method: The heparin-binding properties of H384 and Y384 variants of FHCCP6-8 were compared to full-length human factor H by affinity chromatography on a HiTrap Heparin column (Amersham Biosciences) or a ‘home-made’ column in which 20 mg 4IS was coupled to 1.5-ml CNBr-activated Sepharose (Sigma) in 0.1 M NaHCO3, 0.5 M NaCl, pH 8.3 using the manufacturer's protocol. The 1-ml HiTrap column and ˜1-ml 4IS-column were equilibrated in 20 mM HEPES, 130 mM NaCl, 1 mM EDTA, pH 7.3. Protein (200 μg recombinant proteins; 100 μg full-length factor H) was loaded onto the columns (in 1 ml equilibration buffer) and any unbound material was removed with 5 column volumes of the same buffer and collected in 1-ml fractions. Protein was eluted from the columns using a linear salt gradient of 130 mM to 1 M NaCl over 20 min by mixing 20 mM HEPES, 1 M NaCl, 1 mM EDTA, pH 7.3 with the equilibration buffer at a flow rate of 1 ml/min.
This approach was also used to determine the relative heparin-binding activities of K370A, R386A and K387A mutants, where 200 μg of protein was loaded individually onto the HiTrap column.

Assay [2] can be described thus: Microtitre plate assay: biotinylated proteins binding to selectively desulphated 2IS heparin. The source says:
(§1) The heparin/HS/DS-binding activities of the FHCCP6-8(H384) and FHCCP6-8(Y384) variants (using biotinylated-FHCCP6-8 constructs), and in some cases full-length Factor H (detected with an antibody), were compared using an assay where the glycosaminoglycans (GAGs) were immobilized on allylamine-coated EpranEx plates (Mahoney et al (2004) Anal. Biochem. 330, 123-129), kindly supplied by Plasso Technology Ltd., Sheffield, UK. Previously, we have shown that heparin/HS can bind non-covalently to surfaces plasma polymerized with allylamine in such a way that these GAGs can still associate with a wide-range of proteins (Mahoney et al. (2005) J. Biol. Chem. 280, 27044-27055; Mahoney et al. (2004) ibid).
(§2) The following GAG preparations were analyzed: unfractionated heparins corresponding to the 2nd, 4th and 5th International Standards (denoted here as 2IS, 4IS and 5IS, respectively (Mulloy et al. (2000) Thromb. Haemost. 52, 148-153)); enoxaparin, dalteparin and LMr heparin from Sigma (Cat. No. H3400); selectively desulfated heparins prepared from 2IS heparin as described in Mulloy et al. (1994) Carbohydr. […]
In the case of the biotinylated FHCCP6-8(H384) and FHCCP6-8(Y384) constructs, bound material was detected by adding 200 μl/well of a 1:10,000 dilution of ExtrAvidin alkaline phosphatase (Sigma, Cat. No. E-2636) for 30 minutes. […] For the full-length protein, the level of binding (to 4IS, HSI and HSII) was determined by incubation of the plates for 30 min with MRC OX23 (a monoclonal antibody against factor H (Sim et al. (1983) Biosci. Rep. 3, 1119-1131; 1 μg/well) followed by a 1:1000 dilution of alkaline phosphatase-conjugated goat anti-mouse IgG (Sigma, Cat. No. A-3438) for another 30 minutes. The plates were then developed for 10 min as described above. The absorbance values at 405 nm were determined and corrected against blank wells (i.e., those that contained no GAGs).

Assay [3] can be described thus: Microtitre plate assay: binding to HSI and HSII immobilized on EpranEx plate. Also noted: species or system pig. The note with it: HS immobilized on allylamine-coated EpranEx plate.
Excerpt: as §1, §2
(§3) In the case of the biotinylated FHCCP6-8(H384) and FHCCP6-8(Y384) constructs, bound material was detected by adding 200 μl/well of a 1:10,000 dilution of ExtrAvidin alkaline phosphatase (Sigma, Cat. No. E-2636) for 30 minutes. […]

Assay [4] can be described thus: Microtitre plate assay: biotinylated proteins binding to immobilized dermatan sulphate. Particulars: biotinylated proteins 0-10 pmol/well. Also noted: species or system porcine.
Excerpt: as §1, §2, §3

B1: FHCCP6-8(H384): recombinant protein of Factor H CCPs 6-8, H384 allotype, with N-terminal non-authentic glycine (SEQ ID NO: 1) (protein, listed as Homo sapiens)
chain: MGTLKPCDYPDIKHGGLYHENMRRPYFPVAVGKYYSYYCDEHFETPSGSYWDHIHCTQDGWSPAVPCLRKCYFPYLENGYNQNHGRKFVQGKSIDVACHPGYALPKAQTTVTCMENGWSPTPRCIRVKTCSKSSIDIENGFISESQYTYALKEKAKYQCKLGYVTADGETSGSITCGKDGWSAQPTCI
modifications: VARIANT (1)...(188) Protein sequence of the FHCCP6-8 (H384) construct
In the case of B1, in assay [1], the “NaCl concentration at elution from HiTrap heparin affinity column” value is listed as 340 mM NaCl. Moreover, in assay [2] (2-O-deS or N-deS vs unmodified 2IS), the “effect of removal of 2-O- or N-sulfate on binding” value was “large reduction”. In assay [3], the “binding to HS preparations HSI and HSII” value is reported as “lack of activity”. The “interaction with DS” value in assay [4] was “interact with DS, albeit to a lesser degree than heparin”.

B2: FHCCP6-8(Y384): recombinant Factor H CCPs 6-8, Y384 variant obtained by site-directed mutagenesis (SEQ ID NO: 3) (protein, listed as Homo sapiens)
chain: MGTLKPCDYPDIKHGGLYHENMRRPYFPVAVGKYYSYYCDEHFETPSGSYWDHIHCTQDGWSPAVPCLRKCYFPYLENGYNQNYGRKFVQGKSIDVACHPGYALPKAQTTVTCMENGWSPTPRCIRVKTCSKSSIDIENGFISESQYTYALKEKAKYQCKLGYVTADGETSGSITCGKDGWSAQPTCI
modifications: VARIANT (1)...(188) FHCCP6-8 (Y384 allotype of mature Factor H)
As to B2, the “NaCl concentration at elution from HiTrap heparin affinity column” value in assay [1] is 390 mM NaCl. Also, in assay [2], the “binding to 6-O-deS and N-deS/re-N-Ac preparations versus parental 2IS” value was “indistinguishable”. In addition, in assay [2] (vs unmodified 2IS), the “effect of removal of 2-O-, 2,6-O- or N-sulfates on binding” value was “small effect”. Moreover, the “binding to HS preparations HSI and HSII” value in assay [3] was “lack of activity”. Moreover, in assay [4], the “interaction with DS” value was “interact with DS, albeit to a lesser degree than heparin”.
